Laboratory results as given in patent US20230357429A1 (JANUX THERAPEUTICS, published 2023).
Where no end group is shown, it is not given here.

Each binder was assayed against T1, TBD-11 (HC R98A) (assay: competition ELISA, peptide vs Fab binding to captured biotin-TROP2).
T1 construct: Fab; also called HC R98A mutant

| IC50 | Binder |
| --- | --- |
| 9.93 µM | PDFCYMYGWPICDS (cysteine pairing not given here; also: biotinylated, site not given here) [Peptide-32] |
| 0.77 µM | VDFCALYHWPICYQ (cysteine pairing not given here; also: biotinylated, site not given here) [Peptide-43] |
| 16.6 µM | VDFCYLYNWPVCSK (cysteine pairing not given here; also: biotinylated, site not given here) [Peptide-37] |
| 1.21 µM | IDFCAMYHWPICDT (cysteine pairing not given here; also: biotinylated, site not given here) [Peptide-42] |
| 18 µM | PDFCYMYNWPVCVT (cysteine pairing not given here; also: biotinylated, site not given here) [Peptide-33] |
| 4.42 µM | VDFCSIYHWPVCYV (cysteine pairing not given here; also: biotinylated, site not given here) [Peptide-38] |
| 19.9 µM | VDFCYQYGWPICSR (cysteine pairing not given here; also: biotinylated, site not given here) [Peptide-36] |
| 21.9 µM | EDFCYWYQWPICSD (cysteine pairing not given here; also: biotinylated, site not given here) [Peptide-35] |
| 1.64 µM | VDFCGLYHWPICYQVD (cysteine pairing not given here; also: biotinylated, site not given here) [Peptide-39] |
| 1.51 µM | VDFCGLYHWPICYQVY (cysteine pairing not given here; also: biotinylated, site not given here) [Peptide-41] |
| 4.87 µM | IDFCAVYKWPVCQV (cysteine pairing not given here; also: biotinylated, site not given here) [Peptide-62] |

The binders below were run against T2, TBD-1 wt in the same assay as above.
T2 construct: Fab; the heavy chain entry is VH-CH1; also called wild-type anti-TROP2 Fab (hRS7); TROP2 Fab

| IC50 | Binder |
| --- | --- |
| 4.94 µM | PDFCYMYGWPICDS (cysteine pairing not given here; also: biotinylated, site not given here) [Peptide-32] |
| 0.3 µM | VDFCALYHWPICYQ (cysteine pairing not given here; also: biotinylated, site not given here) [Peptide-43] |
| 6.28 µM | VDFCYLYNWPVCSK (cysteine pairing not given here; also: biotinylated, site not given here) [Peptide-37] |
| 0.3 µM | IDFCAMYHWPICDT (cysteine pairing not given here; also: biotinylated, site not given here) [Peptide-42] |
| 5.6 µM | PDFCYMYNWPVCVT (cysteine pairing not given here; also: biotinylated, site not given here) [Peptide-33] |
| 1.63 µM | VDFCSIYHWPVCYV (cysteine pairing not given here; also: biotinylated, site not given here) [Peptide-38] |
| 5.11 µM | VDFCYQYGWPICSR (cysteine pairing not given here; also: biotinylated, site not given here) [Peptide-36] |
| 4.4 µM | EDFCYWYQWPICSD (cysteine pairing not given here; also: biotinylated, site not given here) [Peptide-35] |
| 0.46 µM | VDFCGLYHWPICYQVD (cysteine pairing not given here; also: biotinylated, site not given here) [Peptide-39] |
| 0.64 µM | VDFCGLYHWPICYQVY (cysteine pairing not given here; also: biotinylated, site not given here) [Peptide-41] |
| 1.47 µM | IDFCAVYKWPVCQV (cysteine pairing not given here; also: biotinylated, site not given here) [Peptide-62] |

The binders below were run against T3, TBD-21 (HC F108A) in the same assay as above.
T3 construct: Fab; also called HC F108A mutant

| IC50 | Binder |
| --- | --- |
| 13.2 µM | PDFCYMYGWPICDS (cysteine pairing not given here; also: biotinylated, site not given here) [Peptide-32] |
| 0.69 µM | VDFCALYHWPICYQ (cysteine pairing not given here; also: biotinylated, site not given here) [Peptide-43] |
| 15.5 µM | VDFCYLYNWPVCSK (cysteine pairing not given here; also: biotinylated, site not given here) [Peptide-37] |
| 0.94 µM | IDFCAMYHWPICDT (cysteine pairing not given here; also: biotinylated, site not given here) [Peptide-42] |
| 15.7 µM | PDFCYMYNWPVCVT (cysteine pairing not given here; also: biotinylated, site not given here) [Peptide-33] |
| 3.54 µM | VDFCSIYHWPVCYV (cysteine pairing not given here; also: biotinylated, site not given here) [Peptide-38] |
| 19.9 µM | VDFCYQYGWPICSR (cysteine pairing not given here; also: biotinylated, site not given here) [Peptide-36] |
| 19.2 µM | EDFCYWYQWPICSD (cysteine pairing not given here; also: biotinylated, site not given here) [Peptide-35] |
| 2.23 µM | VDFCGLYHWPICYQVD (cysteine pairing not given here; also: biotinylated, site not given here) [Peptide-39] |
| 1.5 µM | VDFCGLYHWPICYQVY (cysteine pairing not given here; also: biotinylated, site not given here) [Peptide-41] |
| 3.01 µM | IDFCAVYKWPVCQV (cysteine pairing not given here; also: biotinylated, site not given here) [Peptide-62] |

Each binder was assayed against T4, TBD-22 (HC D109A) in the same assay as above.
T4 construct: Fab; also called HC D109A mutant

| IC50 | Binder |
| --- | --- |
| 0.33 µM | PDFCYMYGWPICDS (cysteine pairing not given here; also: biotinylated, site not given here) [Peptide-32] |
| 0.05 µM | VDFCALYHWPICYQ (cysteine pairing not given here; also: biotinylated, site not given here) [Peptide-43] |
| 0.37 µM | VDFCYLYNWPVCSK (cysteine pairing not given here; also: biotinylated, site not given here) [Peptide-37] |
| 0.06 µM | IDFCAMYHWPICDT (cysteine pairing not given here; also: biotinylated, site not given here) [Peptide-42] |
| 0.33 µM | PDFCYMYNWPVCVT (cysteine pairing not given here; also: biotinylated, site not given here) [Peptide-33] |
| 0.17 µM | VDFCSIYHWPVCYV (cysteine pairing not given here; also: biotinylated, site not given here) [Peptide-38] |
| 1.72 µM | VDFCYQYGWPICSR (cysteine pairing not given here; also: biotinylated, site not given here) [Peptide-36] |
| 0.87 µM | EDFCYWYQWPICSD (cysteine pairing not given here; also: biotinylated, site not given here) [Peptide-35] |
| 0.14 µM | VDFCGLYHWPICYQVD (cysteine pairing not given here; also: biotinylated, site not given here) [Peptide-39] |
| 0.11 µM | VDFCGLYHWPICYQVY (cysteine pairing not given here; also: biotinylated, site not given here) [Peptide-41] |
| 0.08 µM | IDFCAVYKWPVCQV (cysteine pairing not given here; also: biotinylated, site not given here) [Peptide-62] |

The binders below were run against T5, TBD-17 (HC S104A) in the same assay as above.
T5 construct: Fab; also called HC S104A mutant

| IC50 | Binder |
| --- | --- |
| 9.44 µM | PDFCYMYGWPICDS (cysteine pairing not given here; also: biotinylated, site not given here) [Peptide-32] |
| 0.56 µM | VDFCALYHWPICYQ (cysteine pairing not given here; also: biotinylated, site not given here) [Peptide-43] |
| 4.08 µM | VDFCYLYNWPVCSK (cysteine pairing not given here; also: biotinylated, site not given here) [Peptide-37] |
| 0.59 µM | IDFCAMYHWPICDT (cysteine pairing not given here; also: biotinylated, site not given here) [Peptide-42] |
| 6.01 µM | PDFCYMYNWPVCVT (cysteine pairing not given here; also: biotinylated, site not given here) [Peptide-33] |
| 2.03 µM | VDFCSIYHWPVCYV (cysteine pairing not given here; also: biotinylated, site not given here) [Peptide-38] |
| 14.8 µM | VDFCYQYGWPICSR (cysteine pairing not given here; also: biotinylated, site not given here) [Peptide-36] |
| 9.4 µM | EDFCYWYQWPICSD (cysteine pairing not given here; also: biotinylated, site not given here) [Peptide-35] |
| 1.69 µM | VDFCGLYHWPICYQVD (cysteine pairing not given here; also: biotinylated, site not given here) [Peptide-39] |
| 1.55 µM | VDFCGLYHWPICYQVY (cysteine pairing not given here; also: biotinylated, site not given here) [Peptide-41] |
| 1.42 µM | IDFCAVYKWPVCQV (cysteine pairing not given here; also: biotinylated, site not given here) [Peptide-62] |

What follows are binders tested against T6, TBD-6 (LC I93A) in the same assay as above.
T6 construct: Fab; also called LC I93A mutant

| IC50 | Binder |
| --- | --- |
| 3.29 µM | PDFCYMYGWPICDS (cysteine pairing not given here; also: biotinylated, site not given here) [Peptide-32] |
| 0.44 µM | VDFCALYHWPICYQ (cysteine pairing not given here; also: biotinylated, site not given here) [Peptide-43] |
| 2.6 µM | VDFCYLYNWPVCSK (cysteine pairing not given here; also: biotinylated, site not given here) [Peptide-37] |
| 0.22 µM | IDFCAMYHWPICDT (cysteine pairing not given here; also: biotinylated, site not given here) [Peptide-42] |
| 2.16 µM | PDFCYMYNWPVCVT (cysteine pairing not given here; also: biotinylated, site not given here) [Peptide-33] |
| 0.52 µM | VDFCSIYHWPVCYV (cysteine pairing not given here; also: biotinylated, site not given here) [Peptide-38] |
| 3.8 µM | VDFCYQYGWPICSR (cysteine pairing not given here; also: biotinylated, site not given here) [Peptide-36] |
| 3.2 µM | EDFCYWYQWPICSD (cysteine pairing not given here; also: biotinylated, site not given here) [Peptide-35] |
| 0.67 µM | VDFCGLYHWPICYQVD (cysteine pairing not given here; also: biotinylated, site not given here) [Peptide-39] |
| 0.58 µM | VDFCGLYHWPICYQVY (cysteine pairing not given here; also: biotinylated, site not given here) [Peptide-41] |
| 0.55 µM | IDFCAVYKWPVCQV (cysteine pairing not given here; also: biotinylated, site not given here) [Peptide-62] |
